# Laboratory results published in US8460929B2, “Methods of tissue generation and tissue engineered compositions” (The Regents of the University of California, priority 2007, dated 2013).
# B1: pleiotrophin (protein, UniProt P21246 33-168, looked up)
# Pleiotrophin: GKKEKPEKKVKKSDCGEWQWSVCVPTSGDCGLGTREGTRTGAECKQTMKTQRCKIPCNWKKQFGAECKYQFQAWGECDLNTALKTRTGSLKRALHNAECQKTVTISKPCGKLTKPKPQAESKKKKKEGKKQEKMLD
# B2: recombinant human pleiotrophin: recombinant human pleiotrophin produced in the insect cell line (R&D systems) (protein, UniProt P21246 33-168, looked up)
# Pleiotrophin: B1 Pleiotrophin
# B3: fibroblast growth factor-7 (protein, UniProt P21781 32-194, looked up)
# Fibroblast growth factor 7: CNDMTPEQMATNVNCSSPERHTRSYDYMEGGDIRVRRLFCRTQWYLRIDKRGKVKGTQEMKNNYNIMEIRTVAVGIVAIKGVESEFYLAMNKEGKLYAKKECNEDCNFKELILENHYNTYASAKWTHNGGEMFVALNQKGIPVRGKKTKKEQKTAHFLPMAIT
# notes: growth factor obtained from R&D Systems
# B4: glial cell-derived neurotrophic factor (protein, UniProt P39905 78-211, looked up)
# Glial cell line-derived …: SPDKQMAVLPRRERNRQAAAANPENSRGKGRRGQRGKNRGCVLTAIHLNVTDLGLGYETKEELIFRYCSGSCDAAETTYDKILKNLSRNRRLVSDKVGQACCRPIAFDDDLSFLDDNLVYHILRKHSAKRCGCI
# notes: as for B3
# How the values were obtained:
# [1] = test system: isolated ureteric bud; experiment: Isolated ureteric bud culture in 3D extracellular matrix gel (soluble factor effects); type: cell-based, rat; conditions: for induction of isolated UB, WD, or UB and WD branching morphogenesis: factor alone or in combination with GDNF, without BSN-CM; for Shape: rat E13 isolated UB in 3D gel, GDNF 125 ng/ml, HRG 500 ng/ml, FGF1 250 ng/ml, FGF7 50 ng/ml, PTN purified from BSN-CM; for growth of the isolated UB, single soluble factor: factor by itself
# Protocol: In the case of culture of the isolated UB, WD, or UB and WD, the isolated kidneys were trypsinized for 15 min at 37° C. in L-15 media containing 2 μg/ml trypsin (Sigma). Trypsin digestion was arrested by the addition of 10% FCS and the kidneys were removed to fresh L-15 where the UBs, WDs, or UBs and WDs were isolated from surrounding MM by mechanical dissection. isolated UBs, WDs, or UBs and WDs were suspended within an extracellular matrix gel [1:1 mixture of growth factor reduced Matrigel™ (BD) and Type 1 collagen (BD)] applied to the top of a polyester Transwell filter (0.4 μm pore size; Corning-Costar). The Transwells were placed within individual wells of a 24-well tissue culture dish containing 400 μl of either whole BSN-CM, purified tractions of BSN-CM, or D-12 which were supplemented with human recombinant FGF1 (250 ng/ml; R&D Systems), rat recombinant GDNF (125 ng/ml; R&D Systems) and 10% FCS and cultured. Phase-contrast photomicrographs of the developing UB, WD, or UB and WD were taken using a RT-Slider Spot Digital Camera (Diagnostic Instruments Inc.) attached to a Nikon Eclipse TE300 Inverted Microscope.
# Isolated ureteric bud, Wolffian duct bud, or ureteric and Wolffian duct buds were obtained from whole embryonic kidneys as described herein. Briefly, the embryonic kidney was lightly digested with trypsin and the UB, WD, or UB and WD were separated from the MM using fine-tipped needles. The UBs, WDs, or UBs and WDs were suspended within a matrix containing growth factor reduced Matrigel™ and Type I collagen and buffered by HEPES, NaHCO3, and DMEM to a pH of approximately 7.2. This mixture containing the suspended UB, WD, or UB and WD was applied to the top of the Transwell filter and the purified factor is applied to the well. The factor is supplemented with GDNF (125 ng/ml) and 10% FCS, and the isolated UBs, WDs, or UBs and WDs are cultured at 37° C. and humidified 5% CO2 atmosphere and branching morphogenesis, was assayed.
# The entire urogenital tract was isolated from timed pregnant Holtzman rats at embryonic day 13 (E13). Kidney rudiments were dissected and lightly digested in trypsin for 15 minutes, after which the ureteric buds were mechanically separated from the metanephric mesenchyme. For the growth factor optimization, the buds were suspended within a matrix containing growth factor-reduced Matrigel™ and DMEM/F12 (50:50 v/v) on a 0.4 μm pore sized Transwell filter and BSN-conditioned media supplemented with 10% FCS and 1% antibiotics was placed beneath the filter. GDNF (125 ng/ml), FGF1 (250 ng/ml), FGF7 (50 ng/ml), HRG (500 ng/ml), PTN (purified from BSN-CM) was added to the media in various combinations to achieve a “minimal” and “most robust” growth factor condition. For the matrix optimization, isolated buds were cultured in a BSN-CM supplemented with 10% FCS, GDNF (125 ng/ml), FGF1 (250 ng/ml), and 1% antibiotics. Isolate buds were suspended in matrices (natural and artificial) consisting of growth factor reduced Matrigel™ diluted with DMEM/F12 (15%, 25%, 50%, 75% and 100%), type I collagen (3.0 mg/ml), Puramatrix™, 1% alginate solution (crosslinked with 100 mM CaCl2), and type IV collagen (0.75 mg/mL). In some cases, type I collagen, laminin 1, alginate or type IV collagen were added to a 50% growth factor reduced Matrigel™ solution. All matrix solutions were supplemented with DMEM and buffered by HEPES and NaHCO3 to a pH of approximately 7.2. The isolated buds were then cultured at 37° C. in a humidified 5% CO2 atmosphere.
# [2] = test system: whole embryonic kidney; experiment: Whole embryonic kidney organ culture; type: cell-based, rat
# From the text: Timed pregnant female Sprague-Dawley rats at day 13 of gestation (day 0 coincided with appearance of the vaginal plug) were sacrificed and the uteri were removed. The embryos were dissected free of surrounding tissues and the kidneys were isolated. For the culture of the whole kidney rudiment, 2-3 kidneys were applied directly to the top of a polyester Transwell filter (0.4 μm pore size; Corning-Costar). The Transwells were then placed within individual wells of a 24-well tissue culture dish containing 400 μl DMEM/F12 supplemented with 10% FCS with or without purified pleiotrophin. Following 7 days of culture, the kidneys were fixed in 2% paraformaldehyde and doublestained with fluorescein-conjugated Dolichos biflorus, a lectin which binds specifically to UB, WD, or UB and WD-derived structures, and rhodamine conjugated peanut agglutinin, a lectin which binds to structures derived from the MM. Fluorescent staining was detected using a laser-scanning confocal microscope (Zeiss).
# [3] = test system: UB, WD, or UB and WD derived cells; experiment: UB cell three-dimensional culture (tubulogenic activity); type: cell-based, mouse; conditions: collagen/Matrigel gel, 1% FCS, 4 days
# Protocol: Confluent monolayers of UBs, WDs, or UBs and WDs were removed from tissue culture dishes by light trypsinization and the cells. 20,000 cells/ml were suspended in an extracellular matrix gel composed of 80% Type 1 collagen and 20% growth factor-reduced Matrigel™. 100 μl of the UB, WD, or UB and WD cell-containing gel was then aliquoted into individual wells of a 96-well tissue culture plate. After gelation, 100 μl of growth medium (DMEM/F12 with or without purified pleiotrophin) supplemented with 1% FCS was applied to each well and the cultures were incubated at 32° C. in 5% CO2 and 100% humidity. Following 4 days of culture, the percentage of cells/colonies with processes was counted as an indicator of the tubulogenic activity. Phase-contrast photomicrographs were taken as described herein.
# [4] = test system: Wolffian duct; experiment: Wolffian duct budding in vitro; type: cell-based, rat; conditions: whole mesonephros on Transwell filter, 10% serum and 10 ng/mL GDNF, two days
# From the text: The entire urogenital tract was isolated from timed pregnant Holtzman rats at embryonic day 13 (E13). Kidney rudiments were dissected, and the Wolffian duct was transected and removed. In some cases, the mesonephric tubules and most of the intermediate mesoderm were mechanically separated from the WD leaving a thin layer of the intermediate mesoderm that remained adherent to the WD. In some cases, the intermediate mesoderm was carefully stripped away in its entirety so that the epithelial tube of the WD remained intact. The WD with mesonephros and the WD with intermediate mesoderm were placed on 0.4 μm pore size Transwell filters and cultured at the air-media interface. The isolated WD devoid of all intermediate mesoderm was suspended in a matrix containing growth factor reduced Matrigel'm and DMEM/F12 (50:50 v/v) on a 0.4 μm pore sized Transwell filter. All cultures were carried out at 37° C. in a fully humidified 5% CO2 atmosphere in the presence of DMEM/F12 (50:50) media supplemented with 10% fetal calf serum (FCS), GDNF (10 ng/mL for the WD plus mesonephros, 125 ng/ml WD plus mesoderm and isolated WD) and, if necessary, either FGF1 (250 ng/ml) or FGF7 (50 ng/ml).
molecule,measurement,setting,value
"Hepatocyte growth factor [HGF, reference compound]","induction of isolated UB, WD, or UB and WD branching morphogenesis",[1],does not induce branching morphogenesis
fibroblast growth factor-1 [FGF1],effect of added FGF1 on inductive capacity of BSN-CM,[1]; 250 ng/ml FGF1,could potentiate the activity of the BSN-CM
same,"induction of isolated UB, WD, or UB and WD branching morphogenesis",[1],not sufficient to induce
same,Shape,[1],tubular
heregulin [HRG],"growth of the isolated UB, single soluble factor",[1],did not support growth
B1,"morphology of the branching UB, lower concentrations",[1]; 156 ng/ml-2.5 pg/ml purified pleiotrophin,dichotomous branching and elongation of the stalk
same,concentrations useful for morphogenetic activity,[1]; cultures in collagen IV or basement membrane Matrigel,200 to 600 ng/mL
same,"growth of the isolated UB, single soluble factor",[1],did not support growth
same,"branching morphogenesis of the isolated UB, pleiotrophin purified from 3T3 conditioned medium",[1]; pure pleiotrophin isolated from Swiss 3T3 conditioned medium,capable of inducing impressive branching morphogenesis
same,"induction of UB, WD, or UB and WD branching morphogenesis","[1]; supplemented with GDNF, in the absence of FGF1",capable of inducing
same,"morphology of the branching UB, high concentration",[1]; ≧5 μg/ml purified pleiotrophin,robust proliferation with less elongation
same,growth of the UB in whole embryonic kidney organ culture,"[2]; exogenously added pleiotrophin, 7 days",disproportionately stimulated growth
same,Nephron induction visualized with PNA lectin,[2]; high concentrations of pleiotrophin,appeared to be normal
same,formation of branching structures of UB cells in three dimensional culture,[3],capable of inducing the formation of branching structures
B2,"branching morphogenesis of the isolated UB, WD, or UB and WD","[1]; E13 rat bud in extracellular matrix gel, with GDNF",unable to induce
B3,Shape,[1],globular
B4,"growth of the isolated UB, single soluble factor",[1],did not support growth
same,Wolffian duct budding,[4],numerous budding events occurred at multiple foci along the WD
